The source of these data is patent US20130189255A1, “FUSIONS AND CONJUGATES OF INSULINOTROPIC AGENTS” (GLAXO GROUP LIMITED, priority 2008, published 2013).

On the set-up of series [1]: species or system cynomolgus monkey (Macaca fascicularis). The note with it: cynomolgus monkey, in vivo, 0.1 mg/kg. Here is the method:
Briefly, protein was purified using batch absorption to protein L-agarose affinity resin followed by elution with glycine at pH 2.0 and neutralisation woth Tris PH 8.0. This was followed by ion exchange chromotography on a Resource S column using a 0-1M salt gradient in 20 mM acetate pH5.0. Fractions containing the desired protein were then combined and buffer exchanged into 100 mM NaCl, 20 mM citrate pH6.2. Protein was extensively QCed (including SDS-PAGE, mass spec, activity assay:GLP-1R-BA, pH check, osmolarity check), filter sterilised and endotoxin removed. Protein with confimed low endotoxin (<0.05 EU/mg protein) was then used for the in vivo study. Six female cynomolgus monkeys (Macaca fascicularis; Charles River Laboratories BRF, Houston, Tex., Primate Products, Miami, Fla. and/or Covance Research Products, Inc., Alice, Tex.) were used in this study. The monkeys were approximately 2 to 9 years old (with a body weight range of approximately 2 to 5 kilograms) at initiation of dosing. The monkeys were housed individually in stainless-steel cages in an environmentally controlled room(s) (64 F to 84 F; 30 to 70% relative humidity) with a 12-hour light/dark cycle. The female monkeys were offered approximately 6 biscuits twice daily of Monkey Diet #5038 (PMI Nutrition International, Richmond, Ind.) and a daily allotment of fresh fruit. […] Dose was at 0.1 mg/Kg. On the days of dosing, the first feeding occurred within approximately 1 hour post dose for each monkey (extended up to 2.5 hours post dose if study-related procedures required animals to be out of their local housing for an extended period of time). The second feeding was no sooner then two hours following the first feeding. For the purpose of environmental enrichment, additional fruit, legume and/or vegetable (e.g., grapes, baby carrots, peanuts) was provided to each monkey at or around the time of viability check or as a method of reward after acclimation or study-related procedures. Filtered tap water (supplied by Aqua Pennsylvania, Inc. and periodically analyzed) was available ad libitum. Plasma samples (approx 2 ml) were collected from the femoral vessel at predose (0 hour) and nominally at 5 minutes (iv group only), 0.5, 4, 8, 24, 48, 96, 144, 192, 288, 336, 504 and 672 hours after dosing. (PK samples from one of the animals in the iv dose group were only collected to 24 h so this animal has been excluded from the PK fitting). Analysis of samples was by mass spectrometry, and fitting of the data was using WinNonLin fitting software. PK parameters were as follows for iv administration (n=2): T1/2 67 h, MRT 46 h, Vz 327 ml/Kg and Cl 3.3 ml/hr/Kg; and for sc administration (n=3): T1/2 68 h, MRT 98 h, Vz 306 ml/Kg and Cl 3.1 ml/hr/Kg. Bioavailability was calculated as 99%.

Series [2] can be described thus: In solution state by SEC MALLS. The series is classed as physicochemical. The note with it: Superdex 200, 20 mM citrate, 0.1M NaCl. Here is the method:
The aim of this experiment was to determine the in solution state of DAT0115, DAT0117 and DAT0120 by SEC MALLS. Samples were purified and dialysed into appropriate buffer (PBS) and filtered after dialysis, concentration was determined and adjusted to 1 mg/ml. BSA and HSA were purchased from Sigma and used without further purification. Shimadzu LC-20AD Prominence HPLC system with an autosampler (SIL-20A) and SPD-20A Prominence UV/Vis detector was connected to Wyatt Mini Dawn Treos (MALLS, multi-angle laser light scattering detector) and Wyatt Optilab rEX DRI (differential refractive index) detector. The detectors were connected in the following order—LS—UV—RI. Both RI and LS instruments operated at a wavelength of 488 nm. […] The traces are then analysed using ASTRA software, and the signals are normalised aligned and corrected for band broadening following manufacturer's instructions. […] The dilution that takes place on the column is about 10 fold, so the concentration at which in-solution state is determined is 100 ug/ml, or about 8 uM dAb. […] 16, 1093-1099 (1948)]: The calculations were performed automatically by ASTRA software, resulting in a plot with molar mass determined for eath of the slices [Astra manual]. […]

Series [3] addresses CSA (Macaca fascicularis, UniProt A2V9Z4). Description: Surface plasmon resonance (Biacore, streptavidin chip with biotinylated serum albumin), CSA. In kind it is binding, cynomolgus monkey. The note with it: Biacore SA chip, HBS-EP buffer; read-out: Affinity (KD) to CSA. Here is the method: The analysis was performed using a streptavidin chip (SA) coated with biotinylated serum albumin. 200-1000 resonance units (RUs) of each serum albumin was immobilised on the chip. Flow cell 1 was uncoated, flow cell 2 was coated with HSA, flow cell 3 was coated with RSA and flow cell 4 was coated with CSA. A range of concentrations of fusion was prepared (in the range 15.6 nM to 2 μM by dilution into BIACORE HBS-EP buffer (0.01M HEPES, pH7.4, 0.15M NaCl, 3 mM EDTA, 0.005% surfactant P20) and flowed across the BIACORE chip.
Affinity (KD) was calculated from the BIACORE traces by fitting on-rate and off-rate curves to traces generated by concentrations of dAb in the region of the KD.

Entries after “also recorded” stand apart in the source; their conditions may differ. Read-outs that look alike come from different tables or passages of the source.

Sequence of CSA (A2V9Z4 25-608): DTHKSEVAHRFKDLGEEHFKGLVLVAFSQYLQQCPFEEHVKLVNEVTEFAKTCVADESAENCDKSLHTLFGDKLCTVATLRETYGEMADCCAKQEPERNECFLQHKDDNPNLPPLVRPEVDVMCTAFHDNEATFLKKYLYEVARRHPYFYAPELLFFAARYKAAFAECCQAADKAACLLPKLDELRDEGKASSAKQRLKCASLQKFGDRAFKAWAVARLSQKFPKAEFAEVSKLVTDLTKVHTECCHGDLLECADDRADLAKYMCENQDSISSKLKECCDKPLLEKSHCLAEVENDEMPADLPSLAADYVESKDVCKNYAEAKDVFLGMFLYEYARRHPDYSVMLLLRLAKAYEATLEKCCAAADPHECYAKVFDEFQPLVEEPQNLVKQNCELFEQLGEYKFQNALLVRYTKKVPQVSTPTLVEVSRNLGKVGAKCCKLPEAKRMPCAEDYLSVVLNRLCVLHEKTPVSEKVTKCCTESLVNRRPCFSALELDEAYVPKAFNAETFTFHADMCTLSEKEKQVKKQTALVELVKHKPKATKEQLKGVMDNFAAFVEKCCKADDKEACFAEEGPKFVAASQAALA

As to “Exendin 4 (G4S linker)3 DOM7h-14 dAb fusion [DAT0115]”, the Bioavailability in series [1] is 99%. In series [1] (iv), the Cl stood at 3.3 mL/h/kg, the MRT was found to be 46 h, the T1/2 turned out to be 67 h and the Vz was determined as 0.327 L/kg. In series [1] (sc), this substance gave a Cl of 3.1 mL/h/kg, an MRT of 98 h, a T1/2 of 68 h and a Vz of 0.306 L/kg. For the same substance, the “in-solution state (self association)” value in series [2] (pH6.2) was “eluted in a single peak; also recorded: significantly less (and possibly no) self association”. Also, the “Mw determined across the peak (SEC MALLS)” value in series [2] (pH6.2, 0.5 ml/min, expected monomer 16.9 kDa) was determined as 17.4 kDa. Further, the Kd in series [3] turned out to be 2000 nM.
